For data set [1] the following is noted: in vivo. The protocol:
(§1) Approximately 3.7 × 10^6 Bq (100 μCi) of ^18F‐S5 was intravenously injected to a mouse for PET imaging, and 2.5 mmol/kg of gadolinium‐diethylenetriamine pentaacetic acid was injected for enhanced MR imaging. After 120 min postinjection of ^18F‐S5, PET/MR imaging was obtained by using a hybrid 3.0T PET/MR scanner (uPMR 790; UIH, Shanghai, China).

The nature of a further data set: in vivo. The conditions noted are these: mouse, in vivo, iv. The format is in vivo, mouse. The method, then: as §1
(§2) However, in the PET/MR imaging, ^18F‐S5 produced high PET signals in the possible location of the tumor (Figure 2A). The uptake of ^18F‐S5 in tumor was quantified as 4.34 ± 1.16 %ID/g (a percentage of the injected dose per gram) (n = 5) and the tumor‐to‐muscle ratio was 4.32 ± 0.65 (Figure 2B). […] The overexpression of integrin α6 in the spontaneously developed PDAC tissue was confirmed using immunohistochemistry (Figure 2D). In addition, ^18F‐S5‐PET/MR imaging could also detect metastatic tumors in KPC, where ^18F‐S5 produced high PET signals in both of the PDAC lesions and the metastatic tumors in the abdominal cavity (Figure S4A‐D). […] Immunohistochemical analysis confirmed the formation of PanIN lesions in the pancreas and increased integrin α6 expression in lesion tissues (Figure 2H).
(§3) FIGURE 2 ^18F‐S5 PET/MR imaging in PDAC and PanIN mouse models. A, Representative cross‐sectional images of PET/MR imaging with ^18F‐S5 of KPC mouse (left) and the 3D image (right). B, Quantification of ^18F‐S5 uptake (%ID/g) by KPC mouse in tumor (4.34 ± 1.16), muscle (1.00 ± 0.17), liver (1.24 ± 0.33), and heart (2.38 ± 0.45), respectively. […] D, The development of PDAC in KPC mouse was confirmed by HE staining (left), and increased integrin α6 expression was confirmed by immunohistochemistry (right). E, Representative cross‐sectional images of PET/MR imaging of KC mouse (left) and the MIP reconstructed image (right). F, Quantification of ^18F‐S5 uptake (%ID/g) by KC mouse in PanIN tissue (2.99 ± 0.52), muscle (0.89 ± 0.13), liver (1.31 ± 0.22), and heart (2.43 ± 0.35), respectively. […] H, The development of PanIN in mice was confirmed by HE staining (left), and the overexpression of integrin α6 in the lesion was analyzed using immunohistochemistry (right) (red arrow: PanIN; black arrow: relatively normal pancreatic tissue) (mean ± SD, the difference was evaluated by Student's t‐test, *P < .05, **P < .01, ***P < .001)

The next data set relates to PanIN. Put plainly: in vivo. The format is in vivo, mouse. The note with it: KC mouse, PET 120 min postinjection; mean ± SD. The method, then: as §1, §2, §3
In data set [2] the test system is spontaneously developed PDAC. The data set is described as follows: in vivo. In kind it is in vivo, mouse. The note with it: KPC mouse, PET 120 min postinjection; n = 5, mean ± SD. The protocol:
as §1, §2, §3

For the next data set, the target named is T1, integrin α6 (Homo sapiens, UniProt P23229).
T1 sequence (P23229 24-1130): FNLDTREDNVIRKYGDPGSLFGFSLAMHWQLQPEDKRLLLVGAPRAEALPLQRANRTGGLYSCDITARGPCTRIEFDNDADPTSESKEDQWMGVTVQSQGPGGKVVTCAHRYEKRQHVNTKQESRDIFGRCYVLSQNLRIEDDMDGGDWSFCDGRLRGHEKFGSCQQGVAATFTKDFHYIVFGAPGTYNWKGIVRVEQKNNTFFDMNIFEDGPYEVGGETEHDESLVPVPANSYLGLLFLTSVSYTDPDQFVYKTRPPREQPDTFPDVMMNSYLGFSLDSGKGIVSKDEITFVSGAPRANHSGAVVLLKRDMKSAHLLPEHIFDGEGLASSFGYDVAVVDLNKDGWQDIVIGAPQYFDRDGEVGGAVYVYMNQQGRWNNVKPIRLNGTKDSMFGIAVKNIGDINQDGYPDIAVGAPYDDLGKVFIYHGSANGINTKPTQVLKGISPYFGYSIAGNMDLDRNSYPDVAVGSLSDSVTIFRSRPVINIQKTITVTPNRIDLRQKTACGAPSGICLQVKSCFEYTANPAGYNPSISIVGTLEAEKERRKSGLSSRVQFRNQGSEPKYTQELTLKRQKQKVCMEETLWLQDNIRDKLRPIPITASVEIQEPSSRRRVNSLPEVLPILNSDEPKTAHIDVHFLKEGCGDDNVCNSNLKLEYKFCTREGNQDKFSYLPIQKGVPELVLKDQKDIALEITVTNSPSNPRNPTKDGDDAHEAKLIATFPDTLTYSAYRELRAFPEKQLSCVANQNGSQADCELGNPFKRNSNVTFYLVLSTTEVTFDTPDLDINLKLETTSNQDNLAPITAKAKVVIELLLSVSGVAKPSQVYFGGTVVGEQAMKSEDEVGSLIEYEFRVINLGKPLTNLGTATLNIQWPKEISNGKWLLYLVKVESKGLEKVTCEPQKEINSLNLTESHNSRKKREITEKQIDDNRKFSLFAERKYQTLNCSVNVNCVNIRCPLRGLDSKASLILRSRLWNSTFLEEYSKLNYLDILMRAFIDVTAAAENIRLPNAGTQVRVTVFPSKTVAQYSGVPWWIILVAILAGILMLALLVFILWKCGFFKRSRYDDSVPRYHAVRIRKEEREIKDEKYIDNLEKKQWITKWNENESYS
The data set is described as follows: Binding of Ala-mutated peptides by ELISA (alanine scanning of RWY). The conditions noted are these: relative to RWY peptide; Figure 1D,E (ELISA and in vivo blocking). The source says: We selected integrin α6 as the target of PDAC as it was overexpressed in pancreatic cancer cells ^4 , ^5 and cancerous tissue of patients with PDAC ^4 , ^6 , ^7 with an overexpression rate up to 92%. ^4 Increased integrin α6 levels were associated with stronger PDAC cell invasiveness ^5 and poorer prognosis for patients. ^6 , ^7 Furthermore, the integrin α6β4 dimer was overexpressed in PanIN even at a stage as early as PanIN 1A. ^4 Here, we confirmed that integrin α6 was overexpressed in human PDAC (Figure 1A,B) and increased integrin α6 had poorer prognosis for PDAC patients (Figure 1C). Recently, a peptide CRWYDENAC (dubbed RWY) targeting integrin α6 has been identified ^8 and employed for nanotherapeutics of nasopharyngeal carcinoma ^8 and for PET imaging of hepatocellular carcinoma by our team. ^9 Here, we used the Ala scanning mutagenesis to modify the RWY peptide. R, W, and Y were the three key amino acids within the RWY peptide, since their replacement by an alanine reduced the cellular binding ability of this peptide, both in vitro and in vivo. […]
FIGURE 1 Increased and poorer prognosis of integrin α6 in PDAC and the optimization of a peptide targeting integrin α6. […] D, The binding affinities of seven Ala‐mutated peptides were analyzed by ELISA. […]

In a further data set the test system is Sw1990 tumors. Put plainly: In vivo blocking assay of Cy5‐RWY by unlabeled peptides. The note with it: i.v. 6 nmol Cy5‐RWY together with 6 μmol unlabeled peptide; mice bearing Sw1990 tumors. The protocol: FIGURE 1 Increased and poorer prognosis of integrin α6 in PDAC and the optimization of a peptide targeting integrin α6. […] D, The binding affinities of seven Ala‐mutated peptides were analyzed by ELISA. E, The in vivo blocking assays were performed via intravenous injection of 6 nmol of Cy5‐RWY together with 6 μmol of the unlabeled RWY peptide, or its scrambled peptide or a set of its alanine‐scanning mutant peptides into mice bearing Sw1990 tumors. […] F and G, Sw1990 cells were incubated with Cy5‐RWY and Cy5‐S5 at 37°C for 30 min, and the integrin α6‐binding affinities of Cy5‐RWY and Cy5‐S5 were analyzed by flow cytometric analysis (F); the fluorescence intensity of the S5 group presented as relative (1.41 ± 0.03) fold over RWY, indicating a higher tumor cell‐binding ability of S5. H and I To further investigate the in vivo tumor‐binding ability of the S5 peptide, Cy5‐S5, Cy5‐RWY, and Cy5‐CG7C (negative control) were synthesized and used in NIRF.

Positions of bridges follow the written chain, without caps; N, C: chain ends. Residues, ends and D or L forms follow the SMILES beside them. *: point of attachment. NOTA = O=C(O)CN1CCN(CC(=O)O)CCN(CC(=O)*)CC1; PEG4 = NCCOCCOCCOCCOCCC(=O)O

The term tissue uptake denotes the percentage of the injected dose found per gram of tissue. Read a low tissue uptake as little accumulation. With `C[C@@H]1NC(=O)[C@H](CC(N)=O)NC(=O)[C@H](C)NC(=O)[C@H](CC(=O)O)NC(=O)[C@H](Cc2ccc(O)cc2)NC(=O)[C@H](Cc2c[nH]c3ccccc23)NC(=O)[C@H](CCCNC(=N)N)NC(=O)[C@@H](NC(=O)CCOCCOCCOCCOCCNC(=O)CN2CCN(CC(=O)O)CCN(CC(=O)O)CC2)CSSC[C@@H](C(=O)O)NC1=O` [^18F‐S5] ({NOTA-PEG4}-CRWYDANAC-OH; disulfide 1-9 (inferred); N-terminus and C-terminus assumed), in data set [1], the “uptake in tumor tissues compared with other tissues and organs” value was “the highest among all collected tissues and organs except for the kidney”. Further, the tissue uptake at 2 h stood at 2.43 ± 0.35 %ID/g in “in vivo” (KC (LSL-Kras^G12D/+; Pdx1-Cre), uptake in heart); 1.31 ± 0.22 %ID/g in “in vivo” (KC (LSL-Kras^G12D/+; Pdx1-Cre), uptake in liver); 0.89 ± 0.13 %ID/g in the data set “in vivo” (KC (LSL-Kras^G12D/+; Pdx1-Cre), uptake in muscle); 2.38 ± 0.45 %ID/g in the data set “in vivo” (KPC (LSL-Kras^G12D/+; Pdx1-Cre; Trp53^fl/fl), uptake in heart); 1.24 ± 0.33 %ID/g in the data set “in vivo” (KPC (LSL-Kras^G12D/+; Pdx1-Cre; Trp53^fl/fl), uptake in liver); 1 ± 0.17 %ID/g in “in vivo” (KPC (LSL-Kras^G12D/+; Pdx1-Cre; Trp53^fl/fl), uptake in muscle). Further, the “uptake in PanIN tissue” value with PanIN turned out to be 2.99 ± 0.52 %ID/g. In data set [2], this compound returned an uptake in tumor of 4.34 ± 1.16 %ID/g.
As for “CRWYDANAC [S5, peptide …, alanine substitution of E in RWY]”, the “enhanced tumor binding ability” value on integrin α6 is listed as “approximately 1.5 fold”. Further, the “blocking effect on Cy5‐RWY” value in the data set with Sw1990 tumors is “highest blocking effect”.

The values are drawn from PMC7449243, “An optimized integrin α6‐targeted peptide for positron emission tomography/magnetic resonance imaging of pancreatic cancer and its precancerous lesion” (Clinical and Translational Medicine, 2020).
